Here are results for one substance from patent US5455181A, “Thrombin-inhibitory proteins from terrestrial leeches” (BASF Aktiengesellschaft, priority 1991, dated 1995).

This experiment has as its target T1, Thrombin (Homo sapiens, UniProt P00734).
T1 construct: purchased Boehringer Mannheim
The experiment in a line: Determination of the inhibition of thrombin (Chromozym TH chromogenic substrate, absorption at 405 nm). Type of experiment: biochemical. The note with it: periplasmic expression in E. coli DH 5α, fusion protein with maltose binding protein. The protocol:
The purification of the proteins can be followed by a thrombin activity assay. It is expedient to use for this an optical assay in which a chromogenic substrate, for example Chromozym TH, is converted by thrombin. The fractions containing the novel proteins can be identified on addition to this optical assay by their thrombin-inhibiting action.
Thrombin (Boehringer Mannheim) was dissolved to a final concentration of 25 mU/ml in phosphate-buffered saline (PBS) ([…] NaCl; 0.2 g/1 […]; 0.144 g/l sodium phosphate; 0.2 g/l potassium phosphate, pH 7.5).
Chromozym TH (Boehringer Mannheim) was dissolved in 20 ml of H2 O/vial.
50 μl of thrombin solution and 100 μl of Chromozym plus 25 μl of sample or buffer were placed in the wells of a microtiter plate. The absorption at 405 nm was measured immediately thereafter at time 0 and after 30 minutes at 37° C.
The thrombin activity leads to liberation from the chromogenic substrate of a dye which absorbs at 405 nm. The inhibition of thrombin by a thrombin inhibitor is evident from a smaller increase in absorption at 405 nm and was quantified using a calibration plot.

No end group written: not given here.

For the substance “thrombin inhibitor: recombinant protein, SEQ ID NO: 23 position 1 to 57, expressed in E. coli as fusion protein with maltose binding protein (MFSTKMFVVFVAVCICVTQSIRFGMGKVPCPDGEVGYTCDCGEKICLYGQSCNDGQC; cysteine pairing not given here; also: expressed as fusion protein with maltose binding protein)”, the “concentration of the thrombin inhibitor” value is 1250 units per liter of culture medium.
